Test system: c-Src;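 note: 11-residue human phosphosite peptides and single-mutation variants displayed on the E. coli surface, counted by deep sequencing, each peptide's frequency after selection divided by its frequency in the unselected input library; frequency after pTyr selection over input frequency; kinase dosed for 20-30% of maximal phosphorylation in three min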
Assay: phosphorylation enrichment, bacterial display (enrichment ratio); higher = better substrate or ligand; peptides without Tyr show the background
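Throughout, for SH2 binding enrichment of the phosphorylated peptide, bacterial display: peptide library displayed on the E. coli surface as eCPX fusions, selected cells deep-sequenced, score is each peptide's frequency after selection divided by its frequency in the input.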

Sequence | phosphorylation enrichment
RSAGKYDVYLI [MECP2_Y120] | 1.8
AAALAYGLDKS [HSPA9_Y230] | 0.528
SDQRRYSLIDP [CLIP2_Y972_R977P] | 0.383
CHSDDYVHISI [TSC1_Y406_L411I] | 0.524
LARNMYDKEFF [MET_Y1230_D1228N_YF] | 0.626
SRFQFYFQQKG [CHKB_Y381] | 0.379
AAVNGYAFGGG [ECHS1_Y137] | 0.379
SEELHYYVQNH [UQCRC2_Y207_F208Y] | 1.48
SVTCAYSPALN [TP53_Y126_T125A] | 0.583
TLSGIYQYSIA [FOXL2_Y81_I84S] | 4.21
CTTIHYNYKCN [TP53_Y234_M237K] | 0.454
TDLAYYLVREG [ASL_Y376_K380E] | 1.67
RGFRQDAFDGK [HLA-A_Y140_YF] | 0.633
DSMQSYDLDYP [UNC13B_Y243] | 0.474
GTYVIYVRFSG [FLNB_Y1687_G1691S] | 0.532
VSTKVYKRFPS [BEST1_Y148_A146K] | 0.425
KKHIPCREHKS [CSNK1G2_Y206_Y206C] | 0.832

Sequence | phosphorylation enrichment
QKFMAYLSQGW [HLCS_Y236_G241W] | 0.439
HSYNSYTYPRL [PAK5_Y316] | 0.652
YGSSSYGGAGG [RPA2_Y14] | 0.442
DEDFLYREELA [POR_Y575_YF] | 0.487
SEKIVYGHLDD [ACO2_Y71] | 0.847
MPVDGYISGLL [PAK6_Y81] | 0.487
REGAKYVSHCA [ASS1_Y113_G117C] | 0.516
CDKEFYSVHNK [MET_Y1235_Y1230C_YF] | 0.491
IFHLSYHHNCE [PDE6B_Y227_L228H_YF] | 0.455
LPQDGYRIVQH [PTPRT_Y1329_R1324L] | 0.346
LYYYSYLLKNH [PTEN_Y180_V175L] | 1.06
YPSLPYSPVSS [CAMKK2_Y128_C123Y] | 0.546
YDRREYSRFEK [ITGB7_Y758] | 0.702
CGSLLYGLVHQ [PRKCG_Y122] | 5.57
VECQVYAEDPY [PCCA_Y401_R399Q] | 1.02
HRNNNYEPNLF [BRCA2_Y57_K53R] | 0.419

Biological target: Grb2 SH2 (UniProt P62993)
Assay: SH2 binding enrichment of the phosphorylated peptide, bacterial display (enrichment ratio); higher = better substrate or ligand; peptides without Tyr show the background

Sequence of Grb2 SH2 (P62993 whole entry, looked up): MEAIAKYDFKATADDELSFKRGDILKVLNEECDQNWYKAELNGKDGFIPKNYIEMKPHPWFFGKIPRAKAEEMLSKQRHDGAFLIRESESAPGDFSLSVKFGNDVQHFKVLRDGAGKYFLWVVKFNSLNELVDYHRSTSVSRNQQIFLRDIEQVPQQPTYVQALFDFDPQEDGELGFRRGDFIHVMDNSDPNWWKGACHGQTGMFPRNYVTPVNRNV

Sequence | SH2 binding enrichment
RSAGKYDVYLI [MECP2_Y120] | 0.651
AAALAYGLDKS [HSPA9_Y230] | 0.69
SDQRRYSLIDP [CLIP2_Y972_R977P] | 0.889
CHSDDYVHISI [TSC1_Y406_L411I] | 0.811
LARNMYDKEFF [MET_Y1230_D1228N_YF] | 0.427
SRFQFYFQQKG [CHKB_Y381] | 0.692
AAVNGYAFGGG [ECHS1_Y137] | 0.75
SEELHYYVQNH [UQCRC2_Y207_F208Y] | 0.799
SVTCAYSPALN [TP53_Y126_T125A] | 0.802
TLSGIYQYSIA [FOXL2_Y81_I84S] | 0.814
CTTIHYNYKCN [TP53_Y234_M237K] | 1.42
TDLAYYLVREG [ASL_Y376_K380E] | 0.751
RGFRQDAFDGK [HLA-A_Y140_YF] | 0.711
DSMQSYDLDYP [UNC13B_Y243] | 0.915
GTYVIYVRFSG [FLNB_Y1687_G1691S] | 1.05
VSTKVYKRFPS [BEST1_Y148_A146K] | 1.1
KKHIPCREHKS [CSNK1G2_Y206_Y206C] | 1.6

Sequence | SH2 binding enrichment
QKFMAYLSQGW [HLCS_Y236_G241W] | 0.917
HSYNSYTYPRL [PAK5_Y316] | 1.04
YGSSSYGGAGG [RPA2_Y14] | 0.734
DEDFLYREELA [POR_Y575_YF] | 0.916
SEKIVYGHLDD [ACO2_Y71] | 0.865
MPVDGYISGLL [PAK6_Y81] | 0.903
REGAKYVSHCA [ASS1_Y113_G117C] | 1.04
CDKEFYSVHNK [MET_Y1235_Y1230C_YF] | 1
IFHLSYHHNCE [PDE6B_Y227_L228H_YF] | 1.14
LPQDGYRIVQH [PTPRT_Y1329_R1324L] | 0.727
LYYYSYLLKNH [PTEN_Y180_V175L] | 1.05
YPSLPYSPVSS [CAMKK2_Y128_C123Y] | 0.967
YDRREYSRFEK [ITGB7_Y758] | 1.02
CGSLLYGLVHQ [PRKCG_Y122] | 0.987
VECQVYAEDPY [PCCA_Y401_R399Q] | 0.631
HRNNNYEPNLF [BRCA2_Y57_K53R] | 0.674

— the supplement of paper PMC10065799, “High-throughput profiling of sequence recognition by tyrosine kinases and SH2 domains using bacterial peptide display” (eLife, 2023)
